These are literature values, as cited in paper PMC3237005.

Series [1] deals with Lethal factor (LF) LFN (Bacillus anthracis) (UniProt P15917).
The target in series [2] is Edema factor (EF) EFN (Bacillus anthracis) (UniProt P40136).

For orientation: Kd means the equilibrium constant for the complex coming apart. Turning to “Protective antigen (PA63 heptamer) PA63 (from UniProt P13423)”, the Kd in series [1] and in series [2] was 1 nM in each case.
